T1: RSVFV-2 (de novo design (synthetic))
T1 construct: source: E. coli BL21 (DE3), purified (Ni-NTA, SEC)
T1 chain: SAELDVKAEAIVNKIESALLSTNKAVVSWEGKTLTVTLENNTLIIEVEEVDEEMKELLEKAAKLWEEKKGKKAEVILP

T2: RSVFV-3 (de novo design (synthetic))
T2 construct: source: E. coli BL21 (DE3), purified (Ni-NTA, SEC)
T2 chain: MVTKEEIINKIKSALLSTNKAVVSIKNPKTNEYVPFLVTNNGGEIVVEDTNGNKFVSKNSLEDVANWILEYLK

T3: RSVFV-1 (synthetic construct (de novo scaffold …))
T3 construct: also called RSVF-V H6; source: E. coli BL21 (DE3), purified (Ni-NTA, SEC)
T3 chain: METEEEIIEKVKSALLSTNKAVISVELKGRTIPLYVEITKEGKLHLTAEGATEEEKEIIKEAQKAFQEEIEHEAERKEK

T4: RSVFV-4 (de novo design (synthetic))
T4 construct: source: E. coli BL21 (DE3), purified (Ni-NTA, SEC)
T4 chain: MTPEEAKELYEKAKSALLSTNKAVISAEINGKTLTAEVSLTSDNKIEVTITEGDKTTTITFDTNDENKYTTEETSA

T5: RSVF-multi-3 (de novo design (synthetic))
T5 construct: source: E. coli BL21 (DE3), purified (Ni-NTA, SEC)
T5 chain: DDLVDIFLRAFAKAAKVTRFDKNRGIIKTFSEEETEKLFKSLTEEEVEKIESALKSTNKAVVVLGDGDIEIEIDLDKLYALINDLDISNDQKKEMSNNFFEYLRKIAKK

T6: RSVF-multi-4 (synthetic construct (de novo design))
T6 construct: also called RSVF-multi-4 WT; source: E. coli BL21 (DE3), purified (Ni-NTA, SEC)
T6 chain: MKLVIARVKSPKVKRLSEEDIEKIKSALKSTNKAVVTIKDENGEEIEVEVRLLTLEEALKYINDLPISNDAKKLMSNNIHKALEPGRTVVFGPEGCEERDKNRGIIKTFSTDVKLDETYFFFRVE

B1: RSV90 Fab (Fab, V domains shown)
VH: EVQLVESGGGLVQPRRSLRLSCAASGFTFDDYTIHWVRQAPGKGLEWVSGITWNSGYIGYADSVKGRFTISRDNARNSLYLQMNSLRAEDTALYYCVRDAYVSGSDYYYYGLDVWGRGTLVTVSS
VL: EIVMTSSPATLSVSPGERVTLFCRASQSVISNLAWYQQKSGQAPRLLIYGASTRATGIPSRFSGSGSGTEFTLTISSLQSEDFAVYFCQQYNNWPLTFGGGTQVNVQ
notes: also called hRSV90; site-V-specific antibody
B2: Motavizumab IgG (antibody, V domains shown)
VH: QVTLRESGPALVKPTQTLTLTCTFSGFSLSTAGMSVGWIRQPPGKALEWLADIWWDDKKHYNPSLKDRLTISKDTSKNQVVLKVTNMDPADTATYYCARDMIFNFYFDVWGQGTTVTVSS
VL: DIQMTQSPSTLSASVGDRVTITCSASSRVGYMHWYQQKPGKAPKLLIYDTSKLASGVPSRFSGSGSGTEFTLTISSLQPDDFATYYCFQGSGYPFTFGGGTKVEIK
notes: also called site-II-specific antibody

Legend:
Test in all cases: SPR
Details in all cases: both partners purified
RSVFV-2 = target: T1, RSVFV-2
RSVFV-3 = target: T2, RSVFV-3
RSVFV-1 = target: T3, RSVFV-1
RSVFV-4 = target: T4, RSVFV-4
RSVF-multi-3 = target: T5, RSVF-multi-3
RSVF-multi-4 = target: T6, RSVF-multi-4

| Binder | Kd (RSVFV-2) [nM] | Kd (RSVFV-3) [nM] | Kd (RSVFV-1) [nM] | Kd (RSVFV-4) [nM] | Kd (RSVF-multi-3) [nM] | Kd (RSVF-multi-4) [nM] |
| --- | --- | --- | --- | --- | --- | --- |
| B1 | 108 | 94 | 54 | 241 |  |  |
| B2 |  |  |  |  | 18 | 14 |
